In paper PMC7439702 one finds stoichiometry N data, which are given here for 1 substance.

This experiment concerns the target AbmU (Streptomyces koyangensis SCSIO 5802). As to the kind of experiment: crystal structure.

On to AbmU (enzyme), for which the stoichiometry N (as a rule, the number of molecules, sites or subunits per partner or assembly) was found to be 2.
